{
  "source": "paper PMC6288289",
  "target": "HAF protein (trimeric recombinant H5N1 hemagglutinin ectodomain with the bacteriophage T4 fibritin fold on trimerization sequence) (influenza A virus A/Anhui/1/2005 (H5N1) | bacteriophage T4)",
  "assay": "SEC; […], running buffer pH 8.0 ([…]",
  "data": [
    {"substance": "HAF protein (trimeric recombinant H5N1 hemagglutinin ectodomain with the bacteriophage T4 fibritin fold on trimerization sequence)", "values": [
      {"measurement": "stoichiometry N", "result": 3}
    ]}
  ]
}
